In paper PMC10684670 one finds ratio to parent and response data, which are given here for 7 variants.

First the molecules themselves.
B1: B7-H6, wild type, stably expressed on B7-H6 knockout 293T cells [modified: N-linked glycans at N43, N57, N174, N208, N216 and N242; N-linked glycans at N43, N57, N174, N208, N216 and N242] [human] / rhNKp30-his protein [human] (parent)
chain 1: LWVSQPPEIRTLEGSSAFLPCSFNASQGRLAIGSVTWFRDEVVPGKEVRNGTPEFRGRLAPLASSRFLHDHQAELHIRDVRGHDASIYVCRVEVLGLGVGTGNGTRLVVEKEHPQLG
chain 2: DLKVEMMAGGTQITPLNDNVTIFCNIFYSQPLNITSMGITWFWKSLTFDKEVKVFEFFGDHQEAFRPGAIVSPWRLKSGDASLRLPGIQLEEAGEYRCEVVVTPLKAQGTVQLEVVASPASRLLLDQVGMKENEDKYMCESSGFYPEAINITWEKQTQKFPHPIEISEDVITGPTIKNMDGTFNVTSCLKLNSSQEDPGTVYQCVVRHASLHTPLRSNFTLTAARHSLSETEKTDNFSIHWWPISFIGVGLVLLIVLIPWKKICNKSSSAYTPLKCILKHWNSFDTQTLKKEHLIFFCTRAWPSYQLQDGEAWPPEGSVNINTIQQLDVFCRQEGKWSEVPYVQAFFALRDNPDLCQCCRIDPALLTVTSGKSIDDNSTKSEKQTPREHSDAVPDAPILPVSPIWEPPPATTSTTPVLSSQPPTLLLPLQ
B2: rhB7-H6-hFc recombinant protein, wild type [modified: N-linked glycans (removed on the plate by PNGase F in assay a2); N-linked glycans (removed on the plate by PNGase F in assay a2)] [human] / rhNKp30-his protein [human] (parent)
chain 1: B1 chain 1
chain 2: DLKVEMMAGGTQITPLNDNVTIFCNIFYSQPLNITSMGITWFWKSLTFDKEVKVFEFFGDHQEAFRPGAIVSPWRLKSGDASLRLPGIQLEEAGEYRCEVVVTPLKAQGTVQLEVVASPASRLLLDQVGMKENEDKYMCESSGFYPEAINITWEKQTQKFPHPIEISEDVITGPTIKNMDGTFNVTSCLKLNSSQEDPGTVYQCVVRHASLHTPLRSNFTLTAARHSLSETEKTDNFS

Variants of B1 are the subject of one experiment. As to the kind of experiment: flow cytometry on cells. The conditions noted are these: with rhNKp30-his protein [human]; 293T cells stably expressing B7-H6, stained with his-tagged NKp30; parent: 1; read off a plot.
Regarding chain 2 DLKVEMMAGGTQITPLNDNVTIFCNIFYSQPLNITSMGITWFWKSLTFDKEVKVFEFFGDHQEAFRPGAIVSPWRLKSGDASLRLPGIQLEEAGEYRCEVVVTPLKAQGTVQLEVVASPASRLLLDQVGMKENEDKYMCESSGFYPEAINITWEKQTQKFPHPIEISEDVITGPTIKNMDGTFNVTSCLKLNSSQEDPGTVYQCVVRHASLHTPLRSQFTLTAARHSLSETEKTDNFSIHWWPISFIGVGLVLLIVLIPWKKICNKSSSAYTPLKCILKHWNSFDTQTLKKEHLIFFCTRAWPSYQLQDGEAWPPEGSVNINTIQQLDVFCRQEGKWSEVPYVQAFFALRDNPDLCQCCRIDPALLTVTSGKSIDDNSTKSEKQTPREHSDAVPDAPILPVSPIWEPPPATTSTTPVLSSQPPTLLLPLQ [chain 2 N218Q], the ratio to parent is 0.86.

Take chain 2 DLKVEMMAGGTQITPLNDNVTIFCNIFYSQPLNITSMGITWFWKSLTFDKEVKVFEFFGDHQEAFRPGAIVSPWRLKSGDASLRLPGIQLEEAGEYRCEVVVTPLKAQGTVQLEVVASPASRLLLDQVGMKENEDKYMCESSGFYPEAIQITWEKQTQKFPHPIEISEDVITGPTIKNMDGTFNVTSCLKLNSSQEDPGTVYQCVVRHASLHTPLRSNFTLTAARHSLSETEKTDNFSIHWWPISFIGVGLVLLIVLIPWKKICNKSSSAYTPLKCILKHWNSFDTQTLKKEHLIFFCTRAWPSYQLQDGEAWPPEGSVNINTIQQLDVFCRQEGKWSEVPYVQAFFALRDNPDLCQCCRIDPALLTVTSGKSIDDNSTKSEKQTPREHSDAVPDAPILPVSPIWEPPPATTSTTPVLSSQPPTLLLPLQ [chain 2 N150Q]: the ratio to parent is 0.8.

Regarding chain 2 DLKVEMMAGGTQITPLNDQVTIFCNIFYSQPLNITSMGITWFWKSLTFDKEVKVFEFFGDHQEAFRPGAIVSPWRLKSGDASLRLPGIQLEEAGEYRCEVVVTPLKAQGTVQLEVVASPASRLLLDQVGMKENEDKYMCESSGFYPEAINITWEKQTQKFPHPIEISEDVITGPTIKNMDGTFNVTSCLKLNSSQEDPGTVYQCVVRHASLHTPLRSNFTLTAARHSLSETEKTDNFSIHWWPISFIGVGLVLLIVLIPWKKICNKSSSAYTPLKCILKHWNSFDTQTLKKEHLIFFCTRAWPSYQLQDGEAWPPEGSVNINTIQQLDVFCRQEGKWSEVPYVQAFFALRDNPDLCQCCRIDPALLTVTSGKSIDDNSTKSEKQTPREHSDAVPDAPILPVSPIWEPPPATTSTTPVLSSQPPTLLLPLQ [chain 2 N19Q], the ratio to parent was found to be 0.14.

On to chain 2 DLKVEMMAGGTQITPLNDNVTIFCNIFYSQPLNITSMGITWFWKSLTFDKEVKVFEFFGDHQEAFRPGAIVSPWRLKSGDASLRLPGIQLEEAGEYRCEVVVTPLKAQGTVQLEVVASPASRLLLDQVGMKENEDKYMCESSGFYPEAINITWEKQTQKFPHPIEISEDVITGPTIKNMDGTFNVTSCLKLQSSQEDPGTVYQCVVRHASLHTPLRSNFTLTAARHSLSETEKTDNFSIHWWPISFIGVGLVLLIVLIPWKKICNKSSSAYTPLKCILKHWNSFDTQTLKKEHLIFFCTRAWPSYQLQDGEAWPPEGSVNINTIQQLDVFCRQEGKWSEVPYVQAFFALRDNPDLCQCCRIDPALLTVTSGKSIDDNSTKSEKQTPREHSDAVPDAPILPVSPIWEPPPATTSTTPVLSSQPPTLLLPLQ [chain 2 N192Q], for which the ratio to parent came out at 0.42.

As to chain 2 DLKVEMMAGGTQITPLNDNVTIFCNIFYSQPLNITSMGITWFWKSLTFDKEVKVFEFFGDHQEAFRPGAIVSPWRLKSGDASLRLPGIQLEEAGEYRCEVVVTPLKAQGTVQLEVVASPASRLLLDQVGMKENEDKYMCESSGFYPEAINITWEKQTQKFPHPIEISEDVITGPTIKNMDGTFQVTSCLKLNSSQEDPGTVYQCVVRHASLHTPLRSNFTLTAARHSLSETEKTDNFSIHWWPISFIGVGLVLLIVLIPWKKICNKSSSAYTPLKCILKHWNSFDTQTLKKEHLIFFCTRAWPSYQLQDGEAWPPEGSVNINTIQQLDVFCRQEGKWSEVPYVQAFFALRDNPDLCQCCRIDPALLTVTSGKSIDDNSTKSEKQTPREHSDAVPDAPILPVSPIWEPPPATTSTTPVLSSQPPTLLLPLQ [chain 2 N184Q], the ratio to parent came out at 0.22.

Consider chain 2 DLKVEMMAGGTQITPLNDNVTIFCNIFYSQPLQITSMGITWFWKSLTFDKEVKVFEFFGDHQEAFRPGAIVSPWRLKSGDASLRLPGIQLEEAGEYRCEVVVTPLKAQGTVQLEVVASPASRLLLDQVGMKENEDKYMCESSGFYPEAINITWEKQTQKFPHPIEISEDVITGPTIKNMDGTFNVTSCLKLNSSQEDPGTVYQCVVRHASLHTPLRSNFTLTAARHSLSETEKTDNFSIHWWPISFIGVGLVLLIVLIPWKKICNKSSSAYTPLKCILKHWNSFDTQTLKKEHLIFFCTRAWPSYQLQDGEAWPPEGSVNINTIQQLDVFCRQEGKWSEVPYVQAFFALRDNPDLCQCCRIDPALLTVTSGKSIDDNSTKSEKQTPREHSDAVPDAPILPVSPIWEPPPATTSTTPVLSSQPPTLLLPLQ [chain 2 N33Q], for which the ratio to parent turned out to be 0.57.

Variants of B2 are the subject of another experiment. As to the kind of experiment: ELISA. The conditions noted are these: with rhNKp30-his protein [human]; no PNGase F pretreatment; read at the highest NKp30 conc. tested, 2 (unit not printed in this panel); parent: 1.7; read off a plot.
Turning to chain 2 DLKVEMMAGGTQITPLNDNVTIFCNIFYSQPLQITSMGITWFWKSLTFDKEVKVFEFFGDHQEAFRPGAIVSPWRLKSGDASLRLPGIQLEEAGEYRCEVVVTPLKAQGTVQLEVVASPASRLLLDQVGMKENEDKYMCESSGFYPEAINITWEKQTQKFPHPIEISEDVITGPTIKNMDGTFNVTSCLKLNSSQEDPGTVYQCVVRHASLHTPLRSNFTLTAARHSLSETEKTDNFS [chain 2 N33Q], the response came out at 1.5 OD.

Still in this experiment, the particulars now being: with rhNKp30-his protein [human]; pretreated with denatured PNGase F; read at the highest NKp30 conc. tested, 2 (unit not printed in this panel); read off a plot.
As to chain 2 DLKVEMMAGGTQITPLNDNVTIFCNIFYSQPLQITSMGITWFWKSLTFDKEVKVFEFFGDHQEAFRPGAIVSPWRLKSGDASLRLPGIQLEEAGEYRCEVVVTPLKAQGTVQLEVVASPASRLLLDQVGMKENEDKYMCESSGFYPEAINITWEKQTQKFPHPIEISEDVITGPTIKNMDGTFNVTSCLKLNSSQEDPGTVYQCVVRHASLHTPLRSNFTLTAARHSLSETEKTDNFS [chain 2 N33Q], the response was 1.4 OD.
